Consider 6 substances from patent US20200247894A1.

Read-outs that look alike come from different tables or passages of the source.

Test [1] addresses human IL-2Rγ endogenously expressed on NK-92 and Jurkat cells (human) (UniProt P31785). Briefly: flow cytometry, secondary antibody alone (no primary), NK-92 cells (endogenous human IL-2Rg). A general note: A flow cytometer gives signals particle by particle.
The target is the same in test [2]. Briefly: flow cytometry, secondary antibody alone (no primary), Jurkat cells (endogenous human IL-2Rg).
For test [3] the target is unchanged. Kind of test: flow cytometry, secondary antibody alone (no primary), NK-92 cells (endogenous human IL-2Rg). This is another data set of the same source.
Test [4] deals with mouse IL-2Rγ endogenously expressed on MC/9 cells (mouse) (UniProt P34902). Briefly: flow cytometry, secondary antibody alone (no primary), MC/9 cells (endogenous mouse IL-2Rg).
mouse IL-2Rγ endogenously expressed on MC/9 cells (mouse), sequence (P34902 23-369): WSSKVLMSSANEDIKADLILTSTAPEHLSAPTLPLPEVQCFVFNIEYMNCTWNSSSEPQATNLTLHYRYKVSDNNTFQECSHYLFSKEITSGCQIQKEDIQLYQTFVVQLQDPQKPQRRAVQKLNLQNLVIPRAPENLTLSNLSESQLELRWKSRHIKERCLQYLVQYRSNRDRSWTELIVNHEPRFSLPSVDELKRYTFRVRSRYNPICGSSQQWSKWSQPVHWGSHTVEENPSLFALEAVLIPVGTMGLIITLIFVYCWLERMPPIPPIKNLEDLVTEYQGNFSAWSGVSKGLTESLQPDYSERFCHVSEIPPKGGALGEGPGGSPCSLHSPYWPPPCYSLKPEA
For test [5], the target named is human IL2Rγ (endogenously expressed on cells) (human) (UniProt P31785). Kind of test: cell-based or functional assay.
human IL2Rγ (endogenously expressed on cells) (human), sequence (P31785 23-369): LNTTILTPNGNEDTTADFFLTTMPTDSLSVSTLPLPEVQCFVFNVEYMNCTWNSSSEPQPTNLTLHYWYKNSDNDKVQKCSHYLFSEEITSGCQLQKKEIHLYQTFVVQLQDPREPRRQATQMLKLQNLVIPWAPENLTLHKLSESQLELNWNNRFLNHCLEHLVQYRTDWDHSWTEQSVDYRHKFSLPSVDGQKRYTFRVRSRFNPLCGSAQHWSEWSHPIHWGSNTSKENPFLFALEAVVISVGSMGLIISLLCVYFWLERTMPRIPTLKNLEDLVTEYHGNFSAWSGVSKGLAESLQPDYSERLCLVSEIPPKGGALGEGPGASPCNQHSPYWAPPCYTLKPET
The target is the same in test [6]. Briefly: cell-based or functional assay. The source holds these as a separate data set.
Test [7] has as its target human IL-2Rγ endogenously expressed on NK-92 and Jurkat cells (human) (UniProt P31785). Briefly: flow cytometry, 10 ug/ml isotype control, NK-92 cells (endogenous human IL-2Rg).
The target of test [8] is human IL-2Rγ expressed on cells (human) (UniProt P31785). Briefly: flow cytometry on NK-92 cells, isotype control at 10 µg/ml, MFI over unstained; the end 2 belongs to HEK293 (negative control cells) by Table 9-2.
human IL-2Rγ expressed on cells (human), sequence (P31785 23-369): as above
Test [9] shares this target. Kind of test: flow cytometry, isotype control at 10 µg/ml, MFI over unstained; lower end (Jurkat by Table 9-1).
The target is the same in test [10]. Kind of test: flow cytometry, isotype control at 10 µg/ml, MFI over unstained; upper end (NK-92 by Table 9-1).
The target in test [11] is human IL-2Rγ endogenously expressed on NK-92 and Jurkat cells (human) (UniProt P31785). Kind of test: flow cytometry, 10 ug/ml isotype control, Jurkat cells (endogenous human IL-2Rg).
human IL-2Rγ endogenously expressed on NK-92 and Jurkat cells (human), sequence (P31785 23-369): as above
Test [12] shares this target. Briefly: flow cytometry, 10 ug/ml isotype control, NK-92 cells (endogenous human IL-2Rg). This is another data set of the same source.
In test [13] the target is mouse IL-2Rγ endogenously expressed on MC/9 cells (mouse) (UniProt P34902). Kind of test: flow cytometry, 10 ug/ml isotype control, MC/9 cells (endogenous mouse IL-2Rg).

Consider “anti-human antibody conjugated to allophycocyanin (APC) (Jackson ImmunoResearch, #109-136-170)”, for which the Raw MFI was 234 MFI in [1], 80 MFI in test [2], 210 MFI in [3] and 173 MFI in test [4]. Besides, the Binding Ratio (Sample over unstained MFIs) in [2], in [3] and in test [4] was 1 each time.

On to “human IL-2 (from UniProt P60568 21-153) (ligand)”, for which the EC50; IL-2 dose response; NK92/hIL7R/STAT3-luc in test [5] came to 45 pM; in test [6], 33 pM.

Take REGN1945 (antibody): the Binding Ratio (Sample over unstained MFIs) is 1 in test [7], 1 in test [11], 13 in test [12] and 1 in test [13]. For the same substance, the Raw MFI in [7] turned out to be 223 MFI; in test [11], 92 MFI; in [12] it was 1890 MFI; in test [13] it was 196 MFI. Also, the binding ratio in [8] is 1; in test [9] it was 1; in [10], 13.

As for “human IL-15 (from UniProt P40933 49-162) (ligand)”, the EC50; IL-15 dose response; NK92/hIL7R/STAT3-luc in test [5] amounted to 230 pM; in [6], 150 pM.

As to “human IL-21 (from UniProt Q9HBE4 32-162) (ligand)”, the EC50; IL-21 dose response; NK92/hIL7R/STAT3-luc in test [5] turned out to be 6 pM; in test [6], 3.1 pM.

Regarding “human IL-9 (from UniProt P15248 19-144) (ligand)”, the EC50; IL-9 dose response; NK92/hIL7R/STAT3-luc in test [5] amounted to 33 pM; in test [6] it was 20 pM.
